Measurements from patent US20050025740A1.

Target: binding site for alpha-melanocyte stimulating hormone on mouse melanoma cells (mouse)
Test: binding assay using mouse melanoma cells (Bagutti 1992); ratio against full-length natural alpha-MSH

relative binding (Kd of full-length natural hormone divided by Kd of the oxime analog)	Substance
0.82	control monooxime of the alpha-MSH analog Nle-Asp-His-(D)Phe-Arg-Trp-Lys-amide (aminooxyacetyl peptide oximated with acetaldehyde)
3.33	dioxime formed between the aminooxyacetyl peptide (AOA-Nle-Asp-His-(D)Phe-Arg-Trp-Lys-amide) and glyoxal (O=CH-CH=O)
